Results published in PMC4841217, “Structure and stability of recombinant bovine odorant-binding protein: III. Peculiarities of the wild type bOBP unfolding in crowded milieu” (PeerJ, 2016).

Target: the molecule itself
Experiment: intrinsic tryptophan fluorescence (parameter A, fluorescence anisotropy r) with GdnHCl unfolding-refolding curves; recombinant bOBP 0.1-0.2 mg/mL in 20 mM Na-phosphate pH 7.8 with PEG-600, PEG-4000 or PEG-12000 at 80, 150 or 300 mg/mL; incubated at 4 °C, measured at 23 °C; monomer to dimer, inferred from raised anisotropy and sigmoidal unfolding curves

B1: recombinant bovine odorant-binding protein (natural protein)
chain: AQEEEAEQNLSELSGPWRTVYIGSTNPEKIQENGPFRTYFRELVFDDEKGTVDFYFSVKRDGKWKNVHVKATKQDDGTYVADYEGQNVFKIVSLSRTHLVAHNINVDKHGQTTELTELFVKLNVEDEDLEKFWKLTEDKGIDKKNVVNFLENEDHPHPE
notes: Written as the single chain that associates with itself into the domain-swapped dimer; also called bOBP; recombinant bOBP; source: E. coli BL21(DE3), purified (Ni+-agarose, HisGraviTrap columns)
Does B1 bind?
Result: binds
